Reference: article PMC3810412

T1: delta opioid receptor (Homo sapiens), P41143
T1 chain: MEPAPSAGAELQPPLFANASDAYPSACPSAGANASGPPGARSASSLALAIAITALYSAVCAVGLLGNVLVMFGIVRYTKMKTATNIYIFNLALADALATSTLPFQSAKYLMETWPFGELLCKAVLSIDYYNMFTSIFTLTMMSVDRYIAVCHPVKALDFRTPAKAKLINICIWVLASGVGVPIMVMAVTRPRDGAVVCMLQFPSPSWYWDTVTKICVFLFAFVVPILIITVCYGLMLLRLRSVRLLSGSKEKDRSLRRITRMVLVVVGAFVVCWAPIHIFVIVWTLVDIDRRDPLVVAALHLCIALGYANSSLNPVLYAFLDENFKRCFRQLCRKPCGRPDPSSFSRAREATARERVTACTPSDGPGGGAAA


Molecular target: T1, delta opioid receptor (Homo sapiens), …
Experiment: radioligand competition
Settings: modification not given

Ki [nM]	Binder
2.9	YAGFMW [ligand 7]
0.6	YAGFLW [ligand 8]
13	YAGFMPLW [ligand 5]
25	YAGFMALW [ligand 2]
